A short description of this series: self-splicing fitness, log relative to wild type (ln ratio); higher = more splicing; Tetrahymena group I intron in knt gene, E. coli kanamycin selection, DiMSum; sequences stand for … in CUCUCU…GGAGGGAAAAGUUAUCAGGCAUGCACCUGGUAGCUAGUCUUUAAACCAAUAGAUUGCAUCGGUUUAAAAGGCAAGACCGUCAAAUUGCGGGAAAGGGGUCAACAGCCGUUCAGUACCAAGUCUCAGGGGAAACUUUGAGAUGGCCUUGCAAAGGGUAUGGUAAUAAGCUGACGGACAUGGUCCUAACCACGCAGCCAAGUCCUAAGUCAACAGAUCUUCUGUUGAUAUGGAUGCAGUUCACAGACUAAAUGUCGGUCGGGGAAGAUGUAUUCUUCUCAUAAGAUAUAGUCGGACCUCUCCUUAAUGGGAGCUAGCGGAUGAAGUGAUGCAACACUGGAGCCGCUGGGAACUAAUUUGUAUGCGAAAGUAUAUUGAUUAGUUUUGGAGUACUCGUGGUCG
In short, it runs like this: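 DiMSum derived fitness as the error-weighted combination of fold changes across replicates, kanamycin versus no kanamycin, normalised to wild type. E. coli BL21(DE3) held the library, which randomised all eight P1ex-region intron nucleotides within the knt kanamycin-resistance gene on pET-22b(+). Six replicate transformations grew overnight at 37°C or 30°C on LB agar with or without 25 μg/mL kanamycin, also containing 100 μg/mL carbenicillin, 50 μM IPTG and 0.2% rhamnose, and pooled colonies were amplicon-sequenced on an Illumina HiSeq 2500.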

± gives the uncertainty stated by the source.

Consider CGAUAGCAAUAUUACGAGUA, for which the “self-splicing fitness (ln)” value reads like this: (30 °C) -2.16 ± 0.26; (37 °C) -1.88 ± 0.19.

On to UUAGAGCAAUAUUACGAGCC, for which the “self-splicing fitness (ln)” value (30 °C) is -0.789 ± 0.47.

As for UAUCAGCAAUAUUACGCGUC, the “self-splicing fitness (ln)” value by setting is: (30 °C) -2.53 ± 0.11; (37 °C) -0.926 ± 0.12.

UGGCAGCAAUAUUACGUACC: the “self-splicing fitness (ln)” value is -0.627 ± 0.17 (30 °C) and -0.885 ± 0.23 (37 °C).

For the sequence GCUUAGCAAUAUUACGAGUC, the “self-splicing fitness (ln)” value reads like this: (30 °C) -2.18 ± 0.16; (37 °C) -2.22 ± 0.22.

Consider CAGCAGCAAUAUUACGAAGU, for which the “self-splicing fitness (ln)” value was -2.46 ± 0.14 (30 °C) and -2.03 ± 0.24 (37 °C).

For the sequence UGGGAGCAAUAUUACGACAA, the “self-splicing fitness (ln)” value is -2.75 ± 0.34 (30 °C) and -0.982 ± 0.3 (37 °C).

Consider GCACAGCAAUAUUACGCGUC, for which the “self-splicing fitness (ln)” value is -3.73 ± 0.2 (30 °C) and -0.646 ± 0.098 (37 °C).

As to GAGUAGCAAUAUUACGGGAA, the “self-splicing fitness (ln)” value reads like this: (30 °C) -2.33 ± 0.21; (37 °C) -2.14 ± 0.19.

In the case of GCCGAGCAAUAUUACGUAGU, the “self-splicing fitness (ln)” value reads like this: (30 °C) -1.34 ± 0.14; (37 °C) -0.503 ± 0.16.

For the sequence CUGUAGCAAUAUUACGCUAU, the “self-splicing fitness (ln)” value (37 °C) is -0.73 ± 0.29.

For the sequence CUGUAGCAAUAUUACGCUGU, the “self-splicing fitness (ln)” value is, setting by setting: (30 °C) -3.78 ± 0.36; (37 °C) -2.53 ± 0.27.

AUCAAGCAAUAUUACGCGAA: the “self-splicing fitness (ln)” value is -0.924 ± 0.094 (30 °C) and -1.22 ± 0.12 (37 °C).

Regarding CGCCAGCAAUAUUACGCCAG, the “self-splicing fitness (ln)” value by setting is: (30 °C) -0.963 ± 0.12; (37 °C) -0.172 ± 0.15.

For UAAGAGCAAUAUUACGCCCU, the “self-splicing fitness (ln)” value (30 °C) was -3.1 ± 0.31 and the “self-splicing fitness (ln)” value (37 °C) is -2.01 ± 0.41.

As for CUCGAGCAAUAUUACGCCAA, the “self-splicing fitness (ln)” value reads like this: (30 °C) -3.29 ± 0.41; (37 °C) -2.04 ± 0.46.

Turning to CGCGAGCAAUAUUACGGCAG, the “self-splicing fitness (ln)” value by setting is: (30 °C) -0.761 ± 0.1; (37 °C) -0.243 ± 0.13.

Take GAUAAGCAAUAUUACGGUAU: the “self-splicing fitness (ln)” value is, setting by setting: (30 °C) -2.17 ± 0.1; (37 °C) -1.46 ± 0.12.

ACCAAGCAAUAUUACGGUAA: the “self-splicing fitness (ln)” value (30 °C) is -2.9 ± 0.14 and the “self-splicing fitness (ln)” value (37 °C) is -2.02 ± 0.12.

As to GUUUAGCAAUAUUACGCCAC, for the setting “30 °C”, the “self-splicing fitness (ln)” value is -1.72 ± 0.46.

UCGCAGCAAUAUUACGUUAC: the “self-splicing fitness (ln)” value is -3.36 ± 0.36 (30 °C) and -2.95 ± 0.25 (37 °C).

As to GUGUAGCAAUAUUACGUGGG, the “self-splicing fitness (ln)” value was -4.25 ± 0.21 (30 °C) and -4.08 ± 0.26 (37 °C).

Consider AUCAAGCAAUAUUACGGAGU, for which the “self-splicing fitness (ln)” value is, setting by setting: (30 °C) -2.18 ± 0.095; (37 °C) -0.783 ± 0.11.

In the case of GUCUAGCAAUAUUACGCUUG, the “self-splicing fitness (ln)” value is, setting by setting: (30 °C) -1.22 ± 0.11; (37 °C) -0.705 ± 0.11.

For GAAAAGCAAUAUUACGCAUU, the “self-splicing fitness (ln)” value is, setting by setting: (30 °C) -3.24 ± 0.17; (37 °C) -0.376 ± 0.11.

In the case of GAUGAGCAAUAUUACGUUUU, the “self-splicing fitness (ln)” value was -3.82 ± 0.22 (30 °C) and -2.72 ± 0.2 (37 °C).

For the sequence UAGUAGCAAUAUUACGCCCU, the “self-splicing fitness (ln)” value reads like this: (30 °C) -1.34 ± 0.21; (37 °C) -0.583 ± 0.2.

Regarding GUCGAGCAAUAUUACGCGUA, the “self-splicing fitness (ln)” value (30 °C) is -1.26 ± 0.14 and the “self-splicing fitness (ln)” value (37 °C) was -0.913 ± 0.11.

Regarding GGGGAGCAAUAUUACGUCGA, the “self-splicing fitness (ln)” value (30 °C) was 0.294 ± 0.28.

Regarding CAGCAGCAAUAUUACGGCCG, the “self-splicing fitness (ln)” value (30 °C) was -0.67 ± 0.08 and the “self-splicing fitness (ln)” value (37 °C) is -0.622 ± 0.12.

Turning to UUACAGCAAUAUUACGUUAU, the “self-splicing fitness (ln)” value is -1.91 ± 0.087 (30 °C) and -1.98 ± 0.14 (37 °C).

As to AACUAGCAAUAUUACGGUAA, the “self-splicing fitness (ln)” value is -1.49 ± 0.094 (30 °C) and -0.267 ± 0.095 (37 °C).

As for UUUUAGCAAUAUUACGUUUU, the “self-splicing fitness (ln)” value was -3.49 ± 0.21 (30 °C) and -2.22 ± 0.27 (37 °C).

With AUUUAGCAAUAUUACGAUCG, the “self-splicing fitness (ln)” value was -1.76 ± 0.15 (30 °C) and -0.669 ± 0.12 (37 °C).
